The source of these data is article PMC11068011 (Science Advances, 2024).

This test concerns the target T1, Recombinant p47-GST (human, UniProt Q9UNZ2 1-370).
T1 construct: p47 (NSFL1C), recombinant, bought (Novus H00055968-P01); source: bought: Novus, H00055968-P01, purified from wheat germ
T1 sequence (looked up): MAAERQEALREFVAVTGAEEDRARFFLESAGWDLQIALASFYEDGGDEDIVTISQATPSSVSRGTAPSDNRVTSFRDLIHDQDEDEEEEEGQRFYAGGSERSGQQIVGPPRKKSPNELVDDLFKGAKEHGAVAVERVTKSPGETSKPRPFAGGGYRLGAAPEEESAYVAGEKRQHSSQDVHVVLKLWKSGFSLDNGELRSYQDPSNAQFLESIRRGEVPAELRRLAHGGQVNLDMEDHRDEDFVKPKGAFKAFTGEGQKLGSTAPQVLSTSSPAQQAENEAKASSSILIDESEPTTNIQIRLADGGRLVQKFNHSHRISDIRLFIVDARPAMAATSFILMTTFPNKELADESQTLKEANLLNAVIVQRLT
The test is described as follows: pull-down; In vitro binding assay: 1 μg p47-GST and 2 μg p37 (WT or SHP), with or without 2 μg purified VCP, 1 hour at 4°C, then glutathione beads 1 hour; 25 mM Hepes pH 7.4, 150 mM NaCl, 0.01% Triton X-100, 5% glycerol. The note with it: both partners purified.

B1: purified WT p37 (natural protein, human, UniProt Q14CS0 1-331, looked up)
chain: MAEGGGPEPGEQERRSSGPRPPSARDLQLALAELYEDEVKCKSSKSNRPKATVFKSPRTPPQRFYSSEHEYSGLNIVRPSTGKIVNELFKEAREHGAVPLNEATRASGDDKSKSFTGGGYRLGSSFCKRSEYIYGENQLQDVQILLKLWSNGFSLDDGELRPYNEPTNAQFLESVKRGEIPLELQRLVHGGQVNLDMEDHQDQEYIKPRLRFKAFSGEGQKLGSLTPEIVSTPSSPEEEDKSILNAVVLIDDSVPTTKIQIRLADGSRLIQRFNSTHRILDVRNFIVQSRPEFAALDFILVTSFPNKELTDESLTLLEADILNTVLLQQLK
notes: p37 (UBXN2B), human, wild type, from pGEX-6P-1 p37; also called p37 WT; p37WT; source: E. coli Rosetta 2 BL21 (DE3), purified (glutathione sepharose, eluted by PreScission cleavage)
Take B1: the binding result is “binds”.
